Measured values taken from patent publication US20250109209A1 (ABSCI, published 2025).
Where a chain is given by its changes, count along the chain named.

B1: TEV-48574 (antibody, V domains shown)
VH: QVQLVQSGAEVKKPGASVKVSCKASGYTFTSYDINWVRQAPGQGLEWMGWLNPNSGYTGYAQKFQGRVTMTADRSTSTAYMELSSLRSEDTAVYYCAREVPETAAFEYWGQGTLVTVSS
VL: QSVLTQPPSVSGAPGQRVTISCTSSSSDIGAGLGVHWYQQLPGTAPKLLIEGYYNRPSGVPDRFSGSKSGTSASLTITGLLPEDEGDYYCQSWDGTLSALFGGGTKLTVLR
B2: Heron2B-Toci (Fab, V domains shown)
VH: QVQLQESGPGLVRPSQTLSLTCTVSGFDIQDTYMHWVRQRPGRGLEWMGRIDPASGHTKYNPSLKSRVTITRDTSKNQVSLRLSSVTAADTAVYYCARSGGLPDVWGQGSLVTVSS
VL: DIQMTQSPSSLSASVGDRVTITCRASSSVSYMYWYQQKPGKAPKLLIYATSNLASGVPSRFSGSGSGTDFTFTISSLQPEDIATYYCQQWEGNPRTFGQGTKVEIK
notes: also called Heron2B-toci parent
B3: Antibody 10 (mAb format) (antibody, human IgG1, kappa, N297A)
heavy: QVQLQESGPGLVRPSQTLSLTCTVSGLDPDDTYMHWVRQRPGRGLEWMGRIEPAGGHTKYNPSLKSRVTITRDTSKNQVSLRLSSVTAADTAVYYCVISGGLPDVWGQGSLVTVSSASTKGPSVFPLAPSSKSTSGGTAALGCLVKDYFPEPVTVSWNSGALTSGVHTFPAVLQSSGLYSLSSVVTVPSSSLGTQTYICNVNHKPSNTKVDKKVEPKSCDKTHTCPPCPAPELLGGPSVFLFPPKPKDTLMISRTPEVTCVVVDVSHEDPEVKFNWYVDGVEVHNAKTKPREEQYASTYRVVSVLTVLHQDWLNGKEYKCKVSNKALPAPIEKTISKAKGQPREPQVYTLPPSRDELTKNQVSLTCLVKGFYPSDIAVEWESNGQPENNYKTTPPVLDSDGSFFLYSKLTVDKSRWQQGNVFSCSVLHEALHSHYTQKSLSLSPGK
light: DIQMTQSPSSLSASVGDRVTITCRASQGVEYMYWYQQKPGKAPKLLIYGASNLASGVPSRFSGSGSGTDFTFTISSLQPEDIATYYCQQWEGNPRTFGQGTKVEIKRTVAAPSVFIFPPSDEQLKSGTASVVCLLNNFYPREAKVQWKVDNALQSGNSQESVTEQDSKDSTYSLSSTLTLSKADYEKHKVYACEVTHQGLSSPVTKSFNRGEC
notes: also called high priority lead mAb
B4: Antibody 3 (mAb format) (antibody, human IgG1, kappa, N297A)
heavy: B3 heavy with L27F, P29I, D30Q, I98R, V105A
light: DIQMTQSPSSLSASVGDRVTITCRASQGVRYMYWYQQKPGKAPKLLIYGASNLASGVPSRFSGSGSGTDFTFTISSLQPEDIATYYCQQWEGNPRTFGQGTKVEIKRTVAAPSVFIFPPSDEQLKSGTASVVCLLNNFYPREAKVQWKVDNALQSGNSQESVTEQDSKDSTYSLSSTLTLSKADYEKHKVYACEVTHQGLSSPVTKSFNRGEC
notes: as for B3
B5: Antibody 13 (mAb format) (antibody, human IgG1, kappa, N297A)
heavy: B3 heavy with L27F, P29Y, D30Q, E52D, G55S, V97A, I98V, L102M
light: DIQMTQSPSSLSASVGDRVTITCRASQGVEYMYWYQQKPGKAPKLLIYATSNLASGVPSRFSGSGSGTDFTFTISSLQPEDIATYYCQQWEGNPRTFGQGTKVEIKRTVAAPSVFIFPPSDEQLKSGTASVVCLLNNFYPREAKVQWKVDNALQSGNSQESVTEQDSKDSTYSLSSTLTLSKADYEKHKVYACEVTHQGLSSPVTKSFNRGEC
notes: as for B3
B6: RVT-3101 (antibody, V domains shown)
VH: QVQLVQSGAEVKKPGASVKVSCKASGYDFTYYGISWVRQAPGQGLEWMGWISTYNGNTHYARMLQGRVTMTTDTSTRTAYMELRSLRSDDTAVYYCARENYYGSGAYRGGMDVWGQGTTVTVSS
VL: EIVLTQSPATLSLSPGERATLSCRASQSVSSYLAWYQQKPGQAPRLLIYDASNRATGIPARFSGSGSGTDFTLTISSLEPEDFAVYYCQQRSNWPWTFGQGTKVEIK

Columns and labels:
[1] = target: T1, human TL1A (human, UniProt O95150 72-251); experiment: selectivity ELISA: antibody pre-incubated with TL1A, inhibition of TL1A binding to plate-coated DcR3
T1 construct: Antigen in SPR and ELISA; Also used here for places that print only 'TL1A' and for endogenous TL1A in human whole blood; also called TNFSF15
T1 sequence (looked up): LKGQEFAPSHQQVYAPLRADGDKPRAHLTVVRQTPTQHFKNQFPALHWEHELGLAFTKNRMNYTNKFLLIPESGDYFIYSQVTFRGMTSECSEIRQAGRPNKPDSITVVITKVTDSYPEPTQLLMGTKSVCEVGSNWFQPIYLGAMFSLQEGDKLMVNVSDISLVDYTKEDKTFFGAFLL

[2] = target: T1, human TL1A; experiment: selectivity ELISA: antibody pre-incubated with TL1A, inhibition of TL1A binding to plate-coated DR3
[3] = target: T1, human TL1A; experiment: SPR, affinity capture of Fab, average
[4] = target: T1, human TL1A; experiment: SPR, mAb format, average
[5] = target: T1, human TL1A; experiment: SPR, mAb format, average; remark: listed apart in the source
[6] = target: T2, Cyno TL1A (cyno, UniProt G7PRK8 72-251); experiment: SPR, mAb format, average
T2 sequence: T1 sequence (looked up) with F39L, I78V

[7] = target: T1, human TL1A; experiment: SPR, mAb format, average; remark: listed apart in the source
[8] = target: T3, mouse TL1A (mouse, UniProt Q5UBV8 76-252, limits assumed); experiment: SPR, mAb format
T3 sequence (looked up): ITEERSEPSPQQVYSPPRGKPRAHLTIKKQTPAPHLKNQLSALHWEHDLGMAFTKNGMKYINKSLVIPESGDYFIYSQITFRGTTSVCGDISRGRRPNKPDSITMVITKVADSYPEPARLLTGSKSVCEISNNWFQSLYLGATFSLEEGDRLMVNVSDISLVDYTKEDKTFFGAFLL

[9] = target: T4, FcRn (UniProt P55899 24-297; P61769 21-119); experiment: SPR, mAb format, FcRn at pH 6.0, average
T4 construct: also called neonatal receptor
T4 sequence (P55899 24-297 limits assumed, chain 1 of 2): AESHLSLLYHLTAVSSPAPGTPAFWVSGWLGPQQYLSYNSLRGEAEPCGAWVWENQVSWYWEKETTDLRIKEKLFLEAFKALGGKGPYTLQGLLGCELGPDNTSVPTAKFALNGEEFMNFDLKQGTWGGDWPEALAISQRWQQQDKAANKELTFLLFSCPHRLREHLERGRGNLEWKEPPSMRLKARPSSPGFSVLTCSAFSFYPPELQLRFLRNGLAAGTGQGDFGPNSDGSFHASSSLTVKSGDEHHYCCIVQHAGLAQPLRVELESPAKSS
T4 sequence (P61769 21-119 limits assumed, chain 2 of 2): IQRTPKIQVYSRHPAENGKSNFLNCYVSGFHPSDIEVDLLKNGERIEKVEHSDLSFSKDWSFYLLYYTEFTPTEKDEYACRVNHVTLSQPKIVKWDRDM

[10] = target: T4, FcRn; experiment: SPR, representative sensorgram with FcRn, pH 6.0
[11] = target: T3, mouse TL1A; experiment: SPR, mAb format, average
[12] = target: T1, human TL1A; experiment: SPR, representative sensorgram with Human TL1A
[13] = target: T2, Cyno TL1A; experiment: SPR, representative sensorgram with Cyno TL1A

Binder | IC50 [1] | IC50 [2] | Kd [4] | Kd [5] | Kd [6] | Kd [7] | binding result [8] | Kd [9] | also measured
B1 | 0.7 µg/mL | 2.6 µg/mL | – | – | – | – | – | – | –
B2 | – | – | – | – | – | – | – | – | Kd [3]: 5.71 nM
B3 | – | – | 0.482 nM | 0.482 nM | 0.253 nM | 0.482 nM | no binding | 22.1 nM | –
B4 | – | – | 0.044 nM | 0.044 nM | 0.032 nM | 0.044 nM | – | 16 nM | Kd [10]: 14 nM; Kd [11]: 117 nM; Kd [12]: < 0.044 nM; Kd [13]: < 0.031 nM
B5 | – | – | 0.385 nM | 0.385 nM | 0.154 nM | 0.385 nM | no binding | 18.8 nM | –
B6 | 0.8 µg/mL | 4.4 µg/mL | – | – | – | – | – | – | –
